Where no end group is shown, it is not given here.

The target in assay [1] is T1, Anti-CD28 scFv (VH - linker 1 - VL) (biotinylated (site not given)). The experiment in a line: phage binding ELISA; biotinylated anti-CD28 scFv on neutravidin plate, bound phage detected with anti-M13-HRP. (In general: An ELISA detects its analyte on a solid surface through an enzyme-linked reagent.)
Assay [2] deals with T1, Anti-CD28 scFv (VH - linker 1 - VL). Kind of assay: phage binding ELISA on anti-CD28 scFv plate; wells pre-incubated with soluble CD28 as competitor.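 Further: clonal phage supernatants tested, bound phage read out with an HRP-linked anti-M13 antibody, reference wells received blocking buffer lacking CD28.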
Procedure: Clonal phage were harvested as crude supernatants and screened via standard enzyme linked immunosorbent assays (ELISAs). […] Prior to the addition of clonal phage, wells were incubated with blocking buffer and CD28 soluble protein or blocking buffer alone. Without washing or aspirating, clonal phage supernatants were then added to the wells and incubated for a short time. Wells were then washed followed by detection of bound phage using a horse radish peroxidase conjugated anti-M13 antibody.
Assay [3] deals with T2, Anti-CD28 scFv (VH - linker 1 - VL) (biotinylated (site not stated)).
T2 construct: Biotinylated scFv captured on neutravidin coated plates in the panning ELISA
The experiment in a line: phage ELISA; biotinylated anti-CD28 scFv on neutravidin plate, clonal phage supernatant, anti-M13-HRP.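 Further: before the phage were added, wells were pre-incubated with soluble CD28 protein in blocking buffer, or with blocking buffer alone, and were not washed in between.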

The target in assay [4] is T2, Anti-CD28 scFv (VH - linker 1 - VL). Kind of assay: phage ELISA as above, wells pre-incubated with soluble CD28 (competitor).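 Further: ELISA of crude clonal phage supernatants added to wells pre-treated with soluble CD28 in blocking buffer, bound phage read out with HRP-conjugated anti-M13 antibody.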

T1 sequence (scFv, as listed by the source): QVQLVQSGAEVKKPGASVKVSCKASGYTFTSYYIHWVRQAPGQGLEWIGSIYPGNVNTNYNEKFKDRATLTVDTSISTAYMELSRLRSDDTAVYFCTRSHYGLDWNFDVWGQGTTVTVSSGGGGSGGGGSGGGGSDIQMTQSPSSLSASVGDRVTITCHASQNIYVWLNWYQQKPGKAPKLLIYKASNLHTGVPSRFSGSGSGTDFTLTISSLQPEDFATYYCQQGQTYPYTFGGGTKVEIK
T2 sequence (scFv, as listed by the source): as above

B1: Phage-272 (peptide)
peptide: MVWCMSVGWAVCLN
modifications: cysteine pairing not given here; also: displayed on phage as fusion to pIII, fusion limits and linker not given here
notes: Clonal phage of the Peptide-9 library, tested as crude phage supernatant; not shown: pIII of the bacteriophage
For the molecule B1, the “CD28 scFv signal” value in assay [1] was 0.271. Moreover, the “CD28 scFv signal in presence of CD28” value in assay [2] worked out at 0.284.

B2: Phage-263 (peptide)
peptide: MDWCPRHMWHECFA
modifications: cysteine pairing not given here; also: displayed on phage pIII, linker not given here
notes: as for B1
With B2, the “CD28 scFv signal” value in assay [1] is 2.52. In assay [2], the “CD28 scFv signal in presence of CD28” value was determined as 0.298.

B3: Phage-381 (peptide)
peptide: MAWCPRILWHQCFN
On to B3, for which the “CD28 scFv signal” value in assay [3] is 0.322. In addition, the “CD28 scFv signal in presence of CD28” value in assay [4] was found to be 0.129.

B4: Phage-252 (peptide)
peptide: MDWCPRHMWINCFA
modifications: cysteine pairing not given here; also: fused to phage pIII, linker and fusion site not given here
notes: as for B1
On to B4, for which the “CD28 scFv signal” value in assay [1] was 0.92. The “CD28 scFv signal in presence of CD28” value in assay [2] was determined as 0.165.

B5: Phage-387 (peptide)
peptide: MDWCPRHLWLECFN
In the case of B5, the “CD28 scFv signal” value in assay [3] is 0.066. Moreover, the “CD28 scFv signal in presence of CD28” value in assay [4] was determined as 0.074.

B6: Phage-251 (peptide)
peptide: MDWCPRFMWSECFS
modifications: cysteine pairing not given here; also: fused to phage pIII, linker and fusion site not given here
notes: as for B1
On to B6, for which the “CD28 scFv signal” value in assay [1] came to 1.01. Further, the “CD28 scFv signal in presence of CD28” value in assay [2] came to 0.137.

B7: Phage-270 (peptide)
peptide: MDWCPRDFWAFCFF
modifications: cysteine pairing not given here; also: displayed on phage as fusion to pIII, fusion limits and linker not given here
notes: as for B1
As to B7, in assay [1], the “CD28 scFv signal” value is 2.37. The “CD28 scFv signal in presence of CD28” value in assay [2] turned out to be 0.655.

B8: Phage-259 (peptide)
peptide: MDWCPRNLWHACFN
modifications: cysteine pairing not given here; also: fused to phage pIII, linker and fusion site not given here
notes: as for B1
As to B8, the “CD28 scFv signal” value in assay [1] came to 1.57. For the same molecule, in assay [2], the “CD28 scFv signal in presence of CD28” value amounted to 0.112.

B9: Phage-274 (peptide)
peptide: WVSCLRHHWLECFH
modifications: cysteine pairing not given here; also: displayed on phage as fusion to pIII, fusion limits and linker not given here
notes: as for B1
For the molecule B9, the “CD28 scFv signal” value in assay [1] came to 0.723. Besides, the “CD28 scFv signal in presence of CD28” value in assay [2] came to 0.858.

B10: Phage-384 (peptide)
peptide: IMWCPTSLWNRCVT
Regarding B10, the “CD28 scFv signal” value in assay [3] was determined as 0.161. For the same molecule, the “CD28 scFv signal in presence of CD28” value in assay [4] turned out to be 0.129.

B11: Phage-253 (peptide)
peptide: MVGCATSMWNRCLT
modifications: cysteine pairing not given here; also: fused to phage pIII, linker and fusion site not given here
notes: as for B1
Take B11: in assay [1], the “CD28 scFv signal” value was 0.77. Also, the “CD28 scFv signal in presence of CD28” value in assay [2] was 0.746.

B12: Phage-266 (peptide)
peptide: VTSCPTTMWNRCFS
modifications: cysteine pairing not given here; also: displayed on bacteriophage as fusion to pIII, fusion limits and linker not given here
notes: as for B1
As for B12, the “CD28 scFv signal” value in assay [1] is 1.22. Also, the “CD28 scFv signal in presence of CD28” value in assay [2] turned out to be 0.546.

B13: Phage-275 (peptide)
peptide: MDWCPRDHWVDCYS
modifications: cysteine pairing not given here; also: displayed on phage as fusion to pIII, fusion limits and linker not given here
notes: as for B1
As for B13, the “CD28 scFv signal” value in assay [1] was 0.671. For the same molecule, the “CD28 scFv signal in presence of CD28” value in assay [2] came to 0.092.

B14: Phage-385 (peptide)
peptide: ILRCQMNLQDECLN
Take B14: the “CD28 scFv signal” value in assay [3] turned out to be 0.083. Besides, in assay [4], the “CD28 scFv signal in presence of CD28” value is 0.077.

B15: Phage-257 (peptide)
peptide: MDWCPRFLWHECFN
modifications: cysteine pairing not given here; also: fused to phage pIII, linker and fusion site not given here
notes: as for B1
As for B15, in assay [1], the “CD28 scFv signal” value was 2.59. Besides, the “CD28 scFv signal in presence of CD28” value in assay [2] amounted to 0.351.

B16: Phage-277 (peptide)
peptide: MDWCPRSHWSECFS
modifications: cysteine pairing not given here; also: displayed on phage as fusion to pIII, fusion limits and linker not given here
notes: as for B1
For the molecule B16, the “CD28 scFv signal” value in assay [1] was 0.253. For the same molecule, the “CD28 scFv signal in presence of CD28” value in assay [2] was found to be 0.087.

B17: Phage-276 (peptide)
peptide: IDWCPKIHWDLCYF
modifications: cysteine pairing not given here; also: displayed on phage as fusion to pIII, fusion limits and linker not given here
notes: as for B1
With B17, the “CD28 scFv signal” value in assay [1] is 0.295. Also, the “CD28 scFv signal in presence of CD28” value in assay [2] came to 0.082.

B18: Phage-254 (peptide)
peptide: MDWCPRYLWSECFA
modifications: cysteine pairing not given here; also: fused to phage pIII, linker and fusion site not given here
notes: as for B1
Consider B18, for which the “CD28 scFv signal” value in assay [1] came to 2.71. Besides, the “CD28 scFv signal in presence of CD28” value in assay [2] worked out at 0.513.

B19: Phage-383 (peptide)
peptide: LAGCQRDLATVCVI
As for B19, the “CD28 scFv signal” value in assay [3] amounted to 0.229. Besides, the “CD28 scFv signal in presence of CD28” value in assay [4] was 0.116.

B20: Phage-269 (peptide)
peptide: DSFCTWSAWQECGR
modifications: cysteine pairing not given here; also: phage-displayed pIII fusion, pIII and linker not given here
notes: as for B1
As for B20, the “CD28 scFv signal” value in assay [1] was found to be 0.13. The “CD28 scFv signal in presence of CD28” value in assay [2] was determined as 0.101.

B21: Phage-264 (peptide)
peptide: MDWCPRHLWHVCFN
modifications: cysteine pairing not given here; also: displayed on phage pIII, linker not given here
notes: as for B1
Consider B21, for which the “CD28 scFv signal” value in assay [1] was determined as 2.67. Besides, the “CD28 scFv signal in presence of CD28” value in assay [2] stood at 0.636.

B22: Phage-255 (peptide)
peptide: MDWCPRHLWSVCFN
modifications: cysteine pairing not given here; also: fused to phage pIII, linker and fusion site not given here
notes: as for B1
Take B22: the “CD28 scFv signal” value in assay [1] came out at 2.65. Further, the “CD28 scFv signal in presence of CD28” value in assay [2] came to 0.825.

B23: Phage-382 (peptide)
peptide: ITWCPTSLWNRCLV
Take B23: the “CD28 scFv signal” value in assay [3] was 0.242. In assay [4], the “CD28 scFv signal in presence of CD28” value was 0.089.

B24: Phage-261 (peptide)
peptide: MDWCPMFMWHECFN
modifications: cysteine pairing not given here; also: displayed on phage as pIII fusion, fusion limits and linker not given here
notes: as for B1
Regarding B24, the “CD28 scFv signal” value in assay [1] was found to be 2.23. Also, the “CD28 scFv signal in presence of CD28” value in assay [2] came out at 1.04.

B25: Phage-262 (peptide)
peptide: MYWCATSMWNRCFV
modifications: cysteine pairing not given here; also: displayed on phage pIII, linker not given here
notes: as for B1
B25: in assay [1], the “CD28 scFv signal” value is 0.398. In addition, the “CD28 scFv signal in presence of CD28” value in assay [2] was 0.415.

B26: Phage-279 (peptide)
peptide: MDWCPRYLWAECFN
modifications: cysteine pairing not given here; also: displayed on phage as fusion to pIII, fusion limits and linker not given here
notes: as for B1
On to B26, for which the “CD28 scFv signal” value in assay [1] was determined as 2.74. For the same molecule, in assay [2], the “CD28 scFv signal in presence of CD28” value is 1.14.

B27: Phage-386 (peptide)
peptide: NHWCPTTLWNRCVA
Turning to B27, in assay [3], the “CD28 scFv signal” value worked out at 0.078. Further, the “CD28 scFv signal in presence of CD28” value in assay [4] turned out to be 0.093.

B28: Phage-267 (peptide)
peptide: MTLCLSVDLVHCWY
modifications: cysteine pairing not given here; also: displayed on bacteriophage as fusion to pIII, fusion limits and linker not given here
notes: as for B1
On to B28, for which the “CD28 scFv signal” value in assay [1] was 0.632. Moreover, the “CD28 scFv signal in presence of CD28” value in assay [2] worked out at 0.093.

B29: Phage-256 (peptide)
peptide: MDWCPFDLWHVCYN
modifications: cysteine pairing not given here; also: fused to phage pIII, linker and fusion site not given here
notes: as for B1
Regarding B29, the “CD28 scFv signal” value in assay [1] was 2.6. The “CD28 scFv signal in presence of CD28” value in assay [2] was 0.651.

The values above are taken from patent publication US20260242478A1 (published 2026).
